{"source": "patent US20050032064A1", "about": "(GENFIT, published 2005)", "proteins": {"B1": {"name": "human REV-ERB ALPHA receptor (receptor)", "chain": "MTTLDSNNNTGGVITYIGSSGSSPSRTSPESLYSDNSNGSFQSLTQGCPTYFPPSPTGSLTQDPARSFGSIPPSLSDDGSPSSSSSSSSSSSSFYNGSPPGSLQVAMEDSSRVSPSKSTSNITKLNGMVLLCKVCGDVASGFHYGVHACEGCKGFFRRSIQQNIQYKRCLKNENCSIVRINRNRCQQCRFKKCLSVGMSRDAVRFGRIPKREKQRMLAEMQSAMNLANNQLSSQCPLETSPTQHPTPGPMGPSPPPAPVPSPLVGFSQFPQQLTPPRSPSPEPTVEDVISQVARAHREIFTYAHDKLGSSPGNFNANHASGSPPATTPHRWENQGCPPAPNDNNTLAAQRHNEALNGLRQAPSSYPPTWPPGPAHHSCHQSNSNGHRLCPTHVYAAPEGKAPANSPRQGNSKNVLLACPMNMYPHGRSGRTVQEIWEDFSMSFTPAVREVVEFAKHIPGFRDLSQHDQVTLLKAGTFEVLMVRFASLFNVKDQTVMFLSRTTYSLQELGAMGMGDLLSAMFDFSEKLNSLALTEEELGLFTAVVLVSADRSGMENSASVEQLQETLLRALRALVLKNRPLETSRFTKLLLKLPDLRTLNNMHSEKLLSFRVDAQ", "notes": "also called hRev-erb alpha"}}, "biological_target": "the molecule itself", "experiment": "electrophoretic mobility shift assay, in vitro translated protein on labeled Rev-DR2 oligonucleotide", "procedure": "The electrophoretic gel shift studies were carried out by using the indicated end-labeled oligonucleotides, in the presence of the murine PPAR GAMMA receptor, murine RXR ALPHA receptor, human REV-ERB ALPHA receptor produced by reticulocyte lysate, or non-programmed lysates (lysate). Binding competition experiments were performed by adding a 0, 10 or 100-fold excess of unlabeled Rev-DR2 oligonucleotide.\nThe pSG5-mPPAR-gamma, pSG5-mRXR-alpha and pSG5-hRev-erb alpha plasmids were transcribed in vitro with T7 polymerase and translated with the rabbit reticulocyte lysate system (Promega, Madison, Wis., USA). Gel shift experiments with REV-ERB ALPHA, PPAR GAMMA and/or RXR ALPHA proteins were carried out as previously described (Gervois, P. et al., Molecular Endocrinology 1999, 13(3): 400-409; Vu-Dac, N. et al., J. Biol. Chem. 1994, 269(49): 31012-31018). For the competition experiments, increasing quantities of the indicated unlabeled probe were added immediately before adding the labeled oligonucleotide. The complexes were resolved in 5% polyacrylamide gels using […] buffer (90 mM borate, 2.5 mM EDTA, pH 8.3) at room temperature. Gels were dried and exposed overnight at −70° C. on Rayon-X film (XOMAT-AR, Eastman Kodak, Rochester, N.Y., USA).\nLastly, binding of the PPAR GAMMA receptor to the Rev-DR2 site was studied. […]"}
{"protein": "B1", "values": [{"measurement": "binding result", "result": "binds"}]}
